{"source": "paper PMC5998080", "about": "“Structural and functional analysis of mRNA export regulation by the nuclear pore complex” (Nature Communications, 2018)", "key": {"H. sapiens DDX19": {"biological_target": "T1, H. sapiens DDX19 (human, UniProt Q9UMR2 1-479)", "T1 construct": "human DEAD-box helicase DDX19 (the printed residue numbers run to 479); also called hsDDX19; wild-type DDX19; source: E. coli BL21-CodonPlus(DE3)-RIL, purified (Ni-NTA, HiTrap Q, Superdex 200); not shown: His6, N-terminal, cleaved", "T1 sequence (looked up)": "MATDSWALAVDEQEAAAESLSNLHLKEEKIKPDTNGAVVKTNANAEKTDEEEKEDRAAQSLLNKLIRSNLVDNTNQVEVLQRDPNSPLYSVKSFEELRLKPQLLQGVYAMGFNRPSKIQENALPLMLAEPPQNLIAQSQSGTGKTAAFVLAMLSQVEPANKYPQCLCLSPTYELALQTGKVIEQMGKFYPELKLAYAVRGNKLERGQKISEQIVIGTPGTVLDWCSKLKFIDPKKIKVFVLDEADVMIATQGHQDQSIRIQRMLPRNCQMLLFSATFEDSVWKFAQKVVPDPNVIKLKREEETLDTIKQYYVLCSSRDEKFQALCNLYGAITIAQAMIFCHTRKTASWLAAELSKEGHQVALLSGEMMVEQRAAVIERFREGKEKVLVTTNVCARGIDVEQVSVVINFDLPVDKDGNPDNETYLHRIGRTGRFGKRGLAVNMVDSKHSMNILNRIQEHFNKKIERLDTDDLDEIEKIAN", "experiment": "SEC; human DDX19 with Gle1^CTD•Nup42^GBM, without and with 0.5 mM IP6 (IP6 partially reduced complex formation); 20 mM TRIS (pH 8.0), 100 mM NaCl, 5 mM DTT", "details": "both partners purified"}, "[1]": {"biological_target": "T2, H. sapiens DDX19^∆N53 (residues 54–479) (human, UniProt Q9UMR2 54-479)", "T2 construct": "human DEAD-box helicase DDX19 without the flexible N-terminal extension, residues 54-479; source: E. coli BL21-CodonPlus(DE3)-RIL, purified (Ni-NTA, HiTrap Q, Superdex 200); not shown: His6, N-terminal, cleaved", "T2 sequence (looked up)": "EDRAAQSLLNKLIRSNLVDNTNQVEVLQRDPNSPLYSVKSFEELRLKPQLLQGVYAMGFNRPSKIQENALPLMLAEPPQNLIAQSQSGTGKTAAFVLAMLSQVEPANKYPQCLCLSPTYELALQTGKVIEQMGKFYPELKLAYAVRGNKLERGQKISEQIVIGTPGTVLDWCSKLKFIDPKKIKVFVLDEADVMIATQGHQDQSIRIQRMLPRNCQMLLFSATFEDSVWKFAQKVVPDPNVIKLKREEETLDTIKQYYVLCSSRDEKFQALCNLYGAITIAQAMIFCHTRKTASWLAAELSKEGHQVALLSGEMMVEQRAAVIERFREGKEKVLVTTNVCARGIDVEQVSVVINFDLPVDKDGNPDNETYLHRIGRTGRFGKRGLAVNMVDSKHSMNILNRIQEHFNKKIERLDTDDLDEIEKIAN", "experiment": "crystal structure; H. sapiens Gle1^CTD•Nup42^GBM•DDX19^∆N53, reconstituted from equimolar purified Gle1^CTD•Nup42^GBM and DDX19^∆N53; with ADP 3.6 Å or AMP-PNP•Mg^2+ 3.4 Å", "details": "both partners purified"}, "[2]": {"biological_target": "T3, Nup155 C-terminal domain (Nup155^CTD, residues 870–1391) (human, UniProt O75694 870-1391)", "T3 construct": "human Nup155, C-terminal domain, residues 870-1391; also called His6-Nup155^CTD; source: E. coli BL21-CodonPlus(DE3)-RIL, purified (Ni-NTA, HiTrap Q, Superdex 200); not shown: His6, N-terminal, cleaved", "T3 sequence (looked up)": "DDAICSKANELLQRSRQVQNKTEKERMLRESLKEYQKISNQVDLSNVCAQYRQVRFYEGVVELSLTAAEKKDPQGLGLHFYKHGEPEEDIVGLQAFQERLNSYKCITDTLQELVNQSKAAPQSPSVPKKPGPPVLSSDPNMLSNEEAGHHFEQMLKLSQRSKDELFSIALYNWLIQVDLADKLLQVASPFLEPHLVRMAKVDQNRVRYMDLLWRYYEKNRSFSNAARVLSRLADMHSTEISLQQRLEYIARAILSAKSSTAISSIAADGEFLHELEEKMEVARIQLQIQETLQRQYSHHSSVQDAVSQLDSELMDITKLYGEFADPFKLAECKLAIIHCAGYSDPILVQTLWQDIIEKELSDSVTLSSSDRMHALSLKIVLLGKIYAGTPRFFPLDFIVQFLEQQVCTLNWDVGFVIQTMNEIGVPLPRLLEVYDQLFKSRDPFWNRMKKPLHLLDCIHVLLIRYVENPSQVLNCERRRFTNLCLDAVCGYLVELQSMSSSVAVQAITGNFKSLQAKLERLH", "experiment": "SEC; Superdex 200 10/300 GL; 20 mM TRIS (pH 8.0), 100 mM NaCl, 5 mM DTT; proteins mixed and incubated 30 min on ice, twofold molar excess of the smaller component; fractions on Coomassie-stained SDS-PAGE", "details": "both partners purified"}, "GST-Nup155^CTD": {"biological_target": "T4, GST-Nup155^CTD (human, UniProt O75694 870-1391)", "T4 construct": "human Nup155, C-terminal domain, residues 870-1391; Limits are those printed for Nup155^CTD; source: E. coli BL21-CodonPlus(DE3)-RIL, purified (Glutathione Sepharose, HiTrap Q, Superdex 200); not shown: GST, N-terminal, kept", "T4 sequence (looked up)": "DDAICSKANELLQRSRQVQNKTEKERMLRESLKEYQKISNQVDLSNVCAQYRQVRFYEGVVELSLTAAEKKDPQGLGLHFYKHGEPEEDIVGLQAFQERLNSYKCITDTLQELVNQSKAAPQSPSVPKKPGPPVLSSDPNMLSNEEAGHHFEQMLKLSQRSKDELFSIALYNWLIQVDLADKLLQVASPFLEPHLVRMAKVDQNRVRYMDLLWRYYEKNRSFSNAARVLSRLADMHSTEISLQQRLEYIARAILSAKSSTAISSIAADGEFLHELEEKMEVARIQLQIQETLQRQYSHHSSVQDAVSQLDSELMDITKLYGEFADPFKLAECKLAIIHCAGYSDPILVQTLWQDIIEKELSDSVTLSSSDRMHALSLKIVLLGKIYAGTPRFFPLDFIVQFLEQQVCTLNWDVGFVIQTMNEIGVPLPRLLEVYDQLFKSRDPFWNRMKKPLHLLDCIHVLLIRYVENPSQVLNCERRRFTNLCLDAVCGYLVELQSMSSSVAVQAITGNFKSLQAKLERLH", "experiment": "pull-down; GST-Nup155^CTD (20 μM) preincubated with a twofold molar ratio of Nup98^ΔFG or SUMO-Gle1^N, then with 0-8-fold molar ratios of the other protein; Glutathione Sepharose beads; 20 mM TRIS (pH 8.0), 100 mM NaCl, 5 mM DTT", "details": "both partners purified"}, "DDX19 (wild type)": {"biological_target": "T5, DDX19 (wild type) (Homo sapiens, UniProt Q9UMR2 1-479)", "T5 sequence": "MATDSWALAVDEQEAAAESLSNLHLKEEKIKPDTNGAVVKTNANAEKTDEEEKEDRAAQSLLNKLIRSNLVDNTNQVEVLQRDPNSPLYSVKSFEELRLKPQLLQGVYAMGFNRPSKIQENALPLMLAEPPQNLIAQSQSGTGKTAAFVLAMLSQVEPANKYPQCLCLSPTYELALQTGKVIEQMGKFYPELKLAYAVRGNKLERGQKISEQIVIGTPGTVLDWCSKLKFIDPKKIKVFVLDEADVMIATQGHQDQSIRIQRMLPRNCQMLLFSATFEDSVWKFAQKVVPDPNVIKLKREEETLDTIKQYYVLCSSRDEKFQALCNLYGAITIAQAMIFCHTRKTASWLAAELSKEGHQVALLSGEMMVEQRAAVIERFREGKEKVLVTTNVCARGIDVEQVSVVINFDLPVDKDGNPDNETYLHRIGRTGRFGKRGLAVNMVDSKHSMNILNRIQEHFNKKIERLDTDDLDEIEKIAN", "experiment": "EMSA; + 1 uM Gle1CTD(382-698)•Nup42GBM(379-423): binding enhanced; 1 mM AMP-PNP, 2 mM MgCl2; 20 mM TRIS pH 8.0, 100 mM NaCl, 2 mM MgCl2, 1 mM DTT, 10% glycerol, 1 mM AMP-PNP; 25 ng RNA in 10 ul; 20 min on ice; 1.4% native agarose gel, 0.25x TBE, room temperature", "details": "protein: recombinant; tags: His6 removed by PreScission protease; label: none (SYBR gold stain); single strand"}}, "data": [{"binder": "H. sapiens Gle1 C-terminal domain (Gle1^CTD, residues 382–698) (domain or fragment, human, UniProt Q53GS7 382-698, looked up, human Gle1 (splice variant Gle1B), C-terminal domain, residues 382-698; also called hsGle1^CTD; source: E. coli BL21-CodonPlus(DE3)-RIL, co-expressed with His6-hsNup42^GBM, purified (Ni-NTA, heparin, Superdex 75)) VQDITMQWYQQLQDASMQCVLTFEGLTNSKDSQAKKIKMDLQKAATIPVSQISTIAGSKLKEIFDKIHSLLSGKPVQSGGRSVSVTLNPQGLDFVQYKLAEKFVKQGEEEVASHHEAAFPIAVVASGIWELHPRVGDLILAHLHKKCPYSVPFYPTFKEGMALEDYQRMLGYQVKDSKVEQQDNFLKRMSGMIRLYAAIIQLRWPYGNRQEIHPHGLNHGWRWLAQILNMEPLSDVTATLLFDFLEVCGNALMKQYQVQFWKMLILIKEDYFPRIEAITSSGQMGSFIRLKQFLEKCLQHKDIPVPKGFLTSSFWRS", "values": [{"measurement": "binding result", "setting": "H. sapiens DDX19", "value": "binds"}, {"measurement": "binding result", "setting": "[1]", "value": "binds"}]}, {"binder": "Nup98 lacking the FG repeat region (Nup98^∆FG, residues 498–880) (domain or fragment, human, UniProt P52948 498-880, looked up, human Nup98, construct lacking the FG repeat region, residues 498-880; also called Nup98^ΔFG; His6-SUMO-Nup98^∆FG; source: E. coli BL21-CodonPlus(DE3)-RIL, purified (Ni-NTA, HiTrap Q, Superdex 200); not shown: His6, N-terminal, cleaved; SUMO, N-terminal, cleaved) QAVLQQHINSLTYSPFGDSPLFRNPMSDPKKKEERLKPTNPAAQKALTTPTHYKLTPRPATRVRPKALQTTGTAKSHLFDGLDDDEPSLANGAFMPKKSIKKLVLKNLNNSNLFSPVNRDSENLASPSEYPENGERFSFLSKPVDENHQQDGDEDSLVSHFYTNPIAKPIPQTPESAGNKHSNSNSVDDTIVALNMRAALRNGLEGSSEETSFHDESLQDDREEIENNSYHMHPAGIILTKVGYYTIPSMDDLAKITNEKGECIVSDFTIGRKGYGSIYFEGDVNLTNLNLDDIVHIRRKEVVVYLDDNQKPPVGEGLNRKAEVTLDGVWPTDKTSRCLIKSPDRLADINYEGRLEAVSRKQGAQFKEYRPETGSWVFKVSHF", "values": [{"measurement": "binding result", "setting": "[2]", "value": "binds"}, {"measurement": "binding result", "setting": "GST-Nup155^CTD", "value": "binds"}]}, {"binder": "53-nt ssRNA probe (ssRNA) RNA: GUUUUUUUUUUUUUUUUUUUUCUCGAUCCGUAGUGAUCUACUGAGCAUCUCCC", "values": [{"measurement": "binding result", "setting": "DDX19 (wild type)", "value": "binds"}]}]}
